# Read-outs that look alike come from different tables or passages of the source.
# B1: C7A2-8V peptide (peptide)
# peptide: DLMGYIPVV
# modifications: not checked
# B2: wild-type C7A2 peptide (C7A2-WT) (peptide)
# peptide: DLMGYIPLV
# modifications: not checked
# How the values were obtained:
# [1] = target: HLA-A2.1 on TAP-deficient T2 cells (human); assay: T2 cell HLA-A2.1 stabilisation assay, flow cytometry with BB7.2
# [2] = target: HLA-A2.1 on TAP-deficient T2 cells (human); conditions: remark: other sources report otherwise
binder,measurement,setting,value
B1,FI0.5,[1],15 µM
B2,FI0.5,[2],10 µM

# Source: US6685944
